Substitutions are numbered along the chain they refer to.
Columns and labels:
[1] = biological target: MAGE-A4 peptide … presented by HLA-A*02:01 on cells (human); experiment: cell-based or functional assay
[2] = biological target: T1, CD3 heterodimer (Acro Biosystems) (UniProt P07766 23-126); experiment: SPR (Biacore T200), CD3 heterodimer on HC30M chip; value given for the high affinity CD3 Fab
[3] = biological target: T2, HLA-A*02:01 in complex with the MAGE-A4 peptide … (human); experiment: SPR, HLA-A*02:01/MAGE-A4 complex on streptavidin chip; measured in monovalent format
T2 construct: Recombinant complex as immobilised (500 RU) for SPR; also called HLA-A2/MAGE-A4 complex; pMHC-MAGE-A4 antigen
Description: Affinity characterization of HLA-A2/MAGE-A4×CD3 bispecific antibodies was performed by surface plasmon resonance (SPR). All experiments were conducted using a Biacore™ T200 Device (Cytiva). To determine the kinetic parameters of the binding of the bispecific antibodies to the HLA-A2/MAGE-A4 complex, a streptavidin chip (SAHC30M, XanTec) was coated according to the manufacturer's instructions with 500 RU HLA-A*02:01 in complex with the MAGE-A4 peptide. The resulting affinities presented herein correspond to the measurements performed with the respective monovalent antigen binding proteins. […] Uncoated channels were used for referencing. Data fitting was performed using a 1:1 Langmuir model.

[4] = biological target: T1, CD3 heterodimer (Acro Biosystems); experiment: SPR (Biacore T200), CD3 heterodimer on HC30M chip; value given for the low affinity CD3 Fab
[5] = biological target: T1, CD3 heterodimer (Acro Biosystems); experiment: SPR (Biacore T200), CD3 heterodimer on HC30M chip; value given for the mid affinity CD3 Fab

T1 sequence (P07766 23-126, one chain of several): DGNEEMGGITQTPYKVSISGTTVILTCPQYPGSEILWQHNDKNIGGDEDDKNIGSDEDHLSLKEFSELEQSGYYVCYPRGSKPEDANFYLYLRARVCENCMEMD

B1: CDR-6 (bispecific antibody)
heavy: EVQLVESGGGSVQPGGSLRLSCAASGFTFSTYAMNWVRQAPGKGLEWVGRIRSKANNYATYYADSVKGRFTISRDDSKNTLYLQMNSLRAEDTATYYCVRHGNFGDSYVSWFAYWGQGTTVTVSSASTKGPSVFPLAPSSKSTSGGTAALGCLVKDYFPEPVTVSWNSGALTSGVHTFPAVLQSSGLYSLSSVVTVPSSSLGTQTYICNVNHKPSNTKVDKRVEPKSCGGGGSEVQLVESGGGLAQAGGSLRVSCVASGRPFTKYAWGWFRQAPGKAREFVATITWDGGKTDYADSVKGRFTISKDSAENSIYLQMNSLKPEDTAVYYCAADRNYCVGHRCYVRPDDYDYWGQGTQVTVSS
light: AVVTQEPSLTVSPGGTVTLTCGSSTGAVTTSNYANWVQQKPGKSPRGLIGGTNKRAPGVPARFSGSLLGGKAALTISGAQPEDEADYYCALWYSNHWVFGGGTKLTVLGTVAAPSVFIFPPSDEQLKSGTASVVCLLNNFYPREAKVQWKVDNALQSGNSQESVTEQDSKDSTYSLSSTLTLSKADYEKHKVYACEVTHQGLSSPVTKSFNRGECGGGGSEVQLVESGGGLAQAGGSLRVSCVASGRPFTKYAWGWFRQAPGKAREFVATITWDGGKTDYADSVKGRFTISKDSAENSIYLQMNSLKPEDTAVYYCAADRNYCVGHRCYVRPDDYDYWGQGTQVTVSS
- U20S cell killing, IC50 [1]: 0.02 nM

B2: CDR-14 (bispecific antibody)
heavy: EVQLVESGGGLVQPGGSLRLSCAASGFTFSTYAMNWVRQAPGKGLEWVGRIRSKYNNYATYYADSVKGRFTISRDDSKNTLYLQMNSLRAEDTAVYYCVRHGNFGNSYVSWFAYWGQGTLVTVSSASTKGPSVFPLAPSSKSTSGGTAALGCLVKDYFPEPVTVSWNSGALTSGVHTFPAVLQSSGLYSLSSVVTVPSSSLGTQTYICNVNHKPSNTKVDKRVEPKSCGGGGSSYELTQPPSVSVSPGQTASITCTADTLSRSYASWYQQKPGQSPVLVIYRDTSRPSGIPERFSGSNSGNTATLTISGTQAMDEADYYCATSDGSGSNFQLFGGGTKLTVLGGGGGGSGGGGSGGGGSGGGGSESQVLESGGGSVQPGGSLRLSCTVSGFSLSNYAMSWVRQAPGKGLEYIGIVSSGGTTYYASWAKGRFTISKDTSKNTVYLQMNSLRAEDTASYYCAKDLYYGPTTYSAFNLWGQGTSVTVSS
light: QAVVTQEPSLTVSPGGTVTLTCRSSTGAVTTSNYANWVQQKPGQAPRGLIGGTNKRAPGVPARFSGSLLGGKAALTISGAQPEDEADYYCALWYSNHWVFGGGTKLTVLGTVAAPSVFIFPPSDEQLKSGTASVVCLLNNFYPREAKVQWKVDNALQSGNSQESVTEQDSKDSTYSLSSTLTLSKADYEKHKVYACEVTHQGLSSPVTKSFNRGECGGGGSSYELTQPPSVSVSPGQTASITCTADTLSRSYASWYQQKPGQSPVLVIYRDTSRPSGIPERFSGSNSGNTATLTISGTQAMDEADYYCATSDGSGSNFQLFGGGTKLTVLGGGGGGSGGGGSGGGGSGGGGSESQVLESGGGSVQPGGSLRLSCTVSGFSLSNYAMSWVRQAPGKGLEYIGIVSSGGTTYYASWAKGRFTISKDTSKNTVYLQMNSLRAEDTASYYCAKDLYYGPTTYSAFNLWGQGTSVTVSS
notes: no Fc
- Kd [2]: 1.2 nM

B3: CDR-15 (bispecific antibody)
heavy: B2 heavy with N106D, Y470Q
light: QAVVTQEPSLTVSPGGTVTLTCGSSTGAVTTSNYANWVQQKPGKSPRGLIGGTNKRAPGVPARFSGSLLGGKAALTISGAQPEDEADYYCALWYSNHWVFGGGTKLTVLGQPKAAPSVTLFPPSSEELQANKATLVCLISDFYPGAVTVAWKADSSPVKAGVETTTPSKQSNNKYAASSYLSLTPEQWKSHRSYSCQVTHEGSTVEKTVAPTECSGGGGSSYELTQPPSVSVSPGQTASITCTADTLSRSYASWYQQKPGQSPVLVIYRDTSRPSGIPERFSGSNSGNTATLTISGTQAMDEADYYCATSDGSGSNFQLFGGGTKLTVLGGGGGGSGGGGSGGGGSGGGGSESQVLESGGGSVQPGGSLRLSCTVSGFSLSNYAMSWVRQAPGKGLEYIGIVSSGGTTYYASWAKGRFTISKDTSKNTVYLQMNSLRAEDTASYYCAKDLYYGPTTQSAFNLWGQGTSVTVSS
- Kd [3]: 41 nM

B4: CDR-12 (bispecific antibody)
heavy: B2 heavy with Y55A, N106D
light: B2 light with R23G, Q44K, A45S
notes: no Fc
- Kd [4]: 54 nM

B5: CDR-13 (bispecific antibody)
heavy: B2 heavy with N106D
light: B2 light with R23G, Q44K, A45S
notes: no Fc
- Kd [5]: 11 nM

B6: CDR-8 (bispecific antibody)
heavy: B2 heavy with N106D, S323R, D324P, G325S
light: B3 light with S310R, D311P, G312S, Q457Y
notes: no Fc; also called dual pMHC TCE; dual pMHC-targeting T cell engager in Fab-(scFv)2 format
- Kd [3]: 0.1 nM

Source: patent publication US20250002586A1 (CDR LIFE, published 2025)
